{
  "source": "paper PMC4907695",
  "key": {"[1]": {"molecular_target": "SecA^A795C-FL (SecA with a fluorescein label at position 795 on the tip of the two-helix finger) (E. coli) (UniProt P10408)", "experiment": "other fluorescence titration; as a1 (10 nM SecA*, TSG buffer, 0.02% DDM, 2 mM MgCl2, 1 mM AMPPNP) with SecYLGEG pre-incubated with 100 mM DTT"}, "[2]": {"molecular_target": "SecA^A795C-FL (SecA with a fluorescein label at position 795 on the tip of the two-helix finger) (E. coli) (UniProt P10408)", "experiment": "other fluorescence titration; 10 nM SecA* fixed, SecYEG varied; quenching of the fluorescein on SecA*; TSG buffer (20 mM Tris pH 7.5, 130 mM NaCl, 10% glycerol) with 0.02% DDM, 2 mM MgCl2, 1 mM AMPPNP; no DTT; fitted to a tight binding equation"}},
  "data": [
    {"substance": "SecYLGEG pre-incubated with 100 mM DTT (disulphide between S87C and F286C of SecY reduced) (from UniProt P0AGA2 1-443; P0AG96 1-127; P0AG99 1-110) (complex)", "values": [
      {"measurement": "Kd", "setting": "[1]", "value": 19, "unit": "nM"}
    ]},
    {"substance": "SecYLGEG, oxidised (SecYEG with the lateral gate closed by a disulphide bond between S87C and F286C of SecY) (from UniProt P0AGA2 1-443; P0AG96 1-127; P0AG99 1-110) (complex)", "values": [
      {"measurement": "Kd", "setting": "[2]", "value": 41, "unit": "nM"}
    ]}
  ]
}
